Measurements from patent US20260217793A1 (Chugai, published 2026).
Numbering of substitutions follows the chain as printed. One block for each binder: values may come before it.

Key:
human FcγRIIa type R = biological target: T1, human FcγRIIa type R (human, UniProt P12318 34-217); experiment: SPR, amount bound per captured antibody
T1 sequence (looked up): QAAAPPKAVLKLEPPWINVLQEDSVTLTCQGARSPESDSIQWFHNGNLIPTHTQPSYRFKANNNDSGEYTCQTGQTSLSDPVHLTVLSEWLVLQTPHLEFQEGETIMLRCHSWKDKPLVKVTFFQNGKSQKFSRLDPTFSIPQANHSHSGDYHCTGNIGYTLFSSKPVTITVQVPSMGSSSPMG

human FcγRIIb = biological target: T2, human FcγRIIb (human, UniProt P31994 43-217); experiment: SPR, amount bound per captured antibody
T2 sequence (looked up): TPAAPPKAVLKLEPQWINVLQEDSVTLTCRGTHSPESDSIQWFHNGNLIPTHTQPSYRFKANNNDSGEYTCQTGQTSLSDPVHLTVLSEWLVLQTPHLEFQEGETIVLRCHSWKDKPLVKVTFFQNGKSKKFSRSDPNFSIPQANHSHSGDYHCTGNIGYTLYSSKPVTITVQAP

FcγRIIa type R = biological target: T3, FcγRIIa type R (human, UniProt P12318 34-217); experiment: SPR
T3 sequence (looked up): T1 sequence (looked up)

FcγRIIa type H = biological target: T4, FcγRIIa type H (human, UniProt P12318 34-217); experiment: SPR
T4 sequence (looked up): T1 sequence (looked up) with R134H

FcγRIIIa type V = FcγRIIIa type V (human, UniProt P08637 17-208); experiment: SPR
FcγRIIb = biological target: T5, FcγRIIb (human, UniProt P31994 43-217); experiment: SPR
T5 sequence (looked up): T2 sequence (looked up)

FcγRIa = FcγRIa (human, UniProt P12314 16-292); experiment: SPR
Chain of FcγRIa (P12314 16-292): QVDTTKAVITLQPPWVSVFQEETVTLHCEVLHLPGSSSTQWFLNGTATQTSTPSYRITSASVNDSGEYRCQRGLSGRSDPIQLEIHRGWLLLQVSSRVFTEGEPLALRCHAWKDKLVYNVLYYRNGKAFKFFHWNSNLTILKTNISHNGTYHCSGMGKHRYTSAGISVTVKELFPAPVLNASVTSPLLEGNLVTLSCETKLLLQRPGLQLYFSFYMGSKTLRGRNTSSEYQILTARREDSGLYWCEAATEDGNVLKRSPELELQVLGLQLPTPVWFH

Chain of FcγRIIIa type V (P08637 17-208 F176V): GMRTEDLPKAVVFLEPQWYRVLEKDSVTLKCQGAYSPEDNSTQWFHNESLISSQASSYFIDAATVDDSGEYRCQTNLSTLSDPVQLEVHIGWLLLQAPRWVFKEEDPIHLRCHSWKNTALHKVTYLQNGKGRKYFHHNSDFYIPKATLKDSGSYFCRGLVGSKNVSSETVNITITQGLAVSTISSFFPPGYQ

- relative binding activity (IL6R-F652/IL6R-L = 100) (human FcγRIIa type R): 100
- relative binding activity (IL6R-F652/IL6R-L = 100) (human FcγRIIb): 100
B1: IL6R-F652/IL6R-L (antibody, human IgG1, kappa)
heavy: QVQLQESGPGLVKPSETLSLTCAVSGHSISHDHAWSWVRQPPGEGLEWIGFISYSGITNYNPSLQGRVTISRDNSKNTLYLQMNSLRAEDTAVYYCARSLARTTAMDYWGEGTLVTVSSASTKGPSVFPLAPSSKSTSGGTAALGCLVKDYFPEPVTVSWNSGALTSGVHTFPAVLQSSGLYSLSSVVTVPSSSLGTQTYICNVNHKPSNTKVDKKVEPKSCDKTHTCPPCPAPELLGGDSVFLFPPKPKDTLYISRTPEVTCVVVDVSHEDPEVKFNWYVDGVEVHNAKTKPREEQYNSTYRVVSVLTVLHQDWLNGKEYKCKVSNKALPAPIEKTISKAKGQPREPQVYTLPPSRDELTKNQVSLTCLVKGFYPSDIAVEWESNGQPENNYKTTPPVLDSDGSFFLYSKLTVDKSRWQQGNVFSCSVMHEALHYHYTQKSLSLSP
light: not shown

- relative binding activity (FcγRIIa type R): 449 % of control
- relative binding activity (FcγRIIa type H): 188 % of control
- relative binding activity (FcγRIIIa type V): 157 % of control
- relative binding activity (FcγRIIb): 164 % of control
- relative binding activity (FcγRIa): 104 % of control
B2: IL6R-BP198/IL6R-L (antibody, human IgG1, kappa)
heavy: B1 heavy with E235D, L236Y, Y254M, H270D, P273G, K328A, A332K, Y436N, K441E
light: not shown
